From publication PMC2173952 come the findings set out here.

For one assay, the target named is Trx-cpFtsY (UniProt O80842). The assay is described as follows: pull-down.
For assay [1], the target named is cpSRP54-his (A. thaliana) (UniProt P37107). The assay is described as follows: co-IP.
Chain of UniProt P37107 (P37107 76-564): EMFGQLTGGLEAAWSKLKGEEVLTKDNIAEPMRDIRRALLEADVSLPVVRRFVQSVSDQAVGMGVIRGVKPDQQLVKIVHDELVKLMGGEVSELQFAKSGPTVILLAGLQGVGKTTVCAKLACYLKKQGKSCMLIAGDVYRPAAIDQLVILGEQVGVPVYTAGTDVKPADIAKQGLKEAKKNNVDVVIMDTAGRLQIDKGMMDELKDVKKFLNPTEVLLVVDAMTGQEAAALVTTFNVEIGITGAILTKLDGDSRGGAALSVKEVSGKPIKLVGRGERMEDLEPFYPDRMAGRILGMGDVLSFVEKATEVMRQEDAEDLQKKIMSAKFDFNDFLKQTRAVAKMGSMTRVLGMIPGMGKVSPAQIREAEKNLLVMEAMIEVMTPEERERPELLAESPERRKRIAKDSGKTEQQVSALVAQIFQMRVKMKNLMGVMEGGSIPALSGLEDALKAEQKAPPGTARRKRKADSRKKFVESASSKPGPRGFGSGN

Chain of UniProt O80842 (O80842 41-366): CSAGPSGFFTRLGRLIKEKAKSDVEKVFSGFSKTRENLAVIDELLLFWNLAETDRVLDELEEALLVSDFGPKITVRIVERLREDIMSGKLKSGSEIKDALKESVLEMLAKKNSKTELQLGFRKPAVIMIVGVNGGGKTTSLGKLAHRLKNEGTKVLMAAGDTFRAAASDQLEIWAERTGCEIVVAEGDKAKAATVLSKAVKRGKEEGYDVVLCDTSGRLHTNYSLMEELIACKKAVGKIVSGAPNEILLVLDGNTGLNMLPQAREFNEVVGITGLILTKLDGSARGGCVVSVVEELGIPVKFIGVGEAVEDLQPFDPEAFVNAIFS

Turning to “ALB3 (from UniProt Q8LBP4 57-462) (natural protein)”, in the assay with Trx-cpFtsY, the fold change of coprecipitated ALB3 with cpSRP added against cpFtsY alone is above 6 fold. Further, the fold change of the coprecipitate with cpFtsY added against cpSRP alone in assay [1] is above 2 fold.
